Data published in patent publication EP4545559A2 (INSTITUTO BUTANTAN, dated 2025).
Like-named read-outs stand apart in the source and are kept apart here.

Columns and labels:
[1] = target: T1, RBD WT (original Wuhan) (SARS-CoV-2, UniProt P0DTC2 319-541)
[2] = target: T1, RBD WT (original Wuhan); remark: listed apart in the source
[3] = target: T1, RBD WT (original Wuhan); remark: listed apart in the source
[4] = target: T1, RBD WT (original Wuhan); remark: listed apart in the source
[5] = target: T1, RBD WT (original Wuhan); remark: listed apart in the source

B1: Monoclonal antibody S.9.4.F4 (antibody, V domains shown)
VH: QVQLVESGGGVVQPGRSLRLSCAASGFTFSHYGMHWVRQAPGKGLEWVAVILYDGSNEYYADSVKGRFTISRDNSKNTLYLQMNSLRAEDTAVYYCAKGAGTYCSGGNCYVAYFDYWGQGTLVTVSS
VL: AIRMTQSPSSLSASVGDRVTITCQASQDISNYLNWYQQKPGKAPKLLIYDASNLETGVPSRFSGSGSGTDFTVTISSLQPEDFATYYCQQYDNLPLTFGGGTKVEIK
notes: also called mAb S.9.4.F4
[1]
  Kd: ~0.0336 nM

B2: Monoclonal antibody S.9.2.D7 (antibody, V domains shown)
VH: EVQLLESGGGLIQTGGSLRLSCAASGFTFSSYAMSWVRQAPGKGLEWVSVISDSGGSTYYADSVKGRLTISRDNSKNTLYVQMNSLRAEDTAVYYCAKGKGGIAAAGPAFLFDYWGQGTLVTVSS
VL: DIQMTQSPSLLSASAGDRVTISCRMSQGISSYLAWYQQKPGKAPELLISSASTLQSGVPSRFSGSGSGTDFTLTISYLQSEDFATYYCQQYYSFPTTFGGGTKVEIK
notes: also called mAb S.9.2.D7
[2]
  Kd: 4.85 nM

B3: Monoclonal antibody S.9.2.B8 (antibody, V domains shown)
VH: EVQLVETGGGLIQPGGSLRLSCAASGLIVSSNYMTWVRQAPGKGLEWVSVLYSGGTTYYADSVKGRVTISRDNSKNTLYLQVNSLTVADTAVYYCARDLADRGGMDVWGQGTTVTVSS
VL: SYELTQPPSVSVAPGQTARITCGGNNIGSQSVHWYQQKPGQAPVLVVYDDSDRPSGIPERFSGSKSGNMATLTISRVEAGDEADYYCQVWDSSSDHVVFGGGTKLTVL
notes: also called mAb S.9.2.B8
[3]
  Kd: 1.99 nM

B4: Monoclonal antibody S.9.4.C7 (antibody, V domains shown)
VH: QVQLVESGGGVVQPGRSLRLSCAASGFTFRNYAMHWVRQAPGKGLEWVTVISYDGSDKYYADSVKGRFTISRDNSKNTLYLQMNSLRAEDTAVYYCAKDPVGGYCSGGRCYFHSHYFDYWGQGTLVTVSS
VL: NFMLTQPHSVSESPGKTVTISCTRSSGSIASYYVQWYQQRPGSSPTTVISEDNQRPSGVPDRFSGSIDSSSNSASLTISGLKTEDEADYYCQSYDSNNHVIFGGGTKLTVL
notes: also called mAb S.9.4.C7
[4]
  Kd: 0.0407 nM

B5: Monoclonal antibody S.9.1.C9 (antibody, V domains shown)
VH: QVQLVESGGGVVQPGRSLGLSCAVSGFTFSNYGMDWVRQAPGKGLEWVAVTSYDGSNKYYADSVKGRFTISRDNSKNTLYLQMNSLRTEDTAVYYCAKHGGGPYCGGGTCYLAYFDYWGQGTLVTVSS
VL: DIQMTQSPSSLSASVRDRVTITCQASQDISKFLNWYQQKPGKAPKLLIYDASNLETGVPSRFSGSGSGTDFTFTISSLQPEDIATYYCQQYDNLPITFGQGTRLEIKR
notes: also called mAb S.9.1.C9
[5]
  Kd: 0.214 nM
